# Reference: IntAct's records for PubMed 29892012
# B1: Genetic suppressor element 1 (Homo sapiens), Q14687 (parent)
# chain: MKGMSHEPKSPSLGMLSTATRTTATVNPLTPSPLNGALVPSGSPATSSALSAQAAPSSSFAAALRKLAKQAEEPRGSSLSSESSPVSSPATNHSSPASTPKRVPMGPIIVPPGGHSVPSTPPVVTIAPTKTVNGVWRSESRQDAGSRSSSGGRERLIVEPPLPQEKAGGPAIPSHLLSTPYPFGLSPSSVVQDSRFPPLNLQRPVHHVVPPSTVTEDYLRSFRPYHTTDDLRMSSLPPLGLDPATAAAYYHPSYLAPHPFPHPAFRMDDSYCLSALRSPFYPIPTPGSLPPLHPSAMHLHLSGVRYPPELSHSSLAALHSERMSGLSAERLQMDEELRREREREREREREREADREREKEREREREKEREQEKEREREKERERELERQREQRAREKELLAAKALEPSFLPVAELHGLRGHATEERGKPSEQLTPTRAEKLKDAGLQAPKPVQHPLHPVPTPHHTVPSLISNHGIFSLPSSSAATALLIQRTNEEEKWLARQRRLRQEKEDRQSQVSEFRQQVLEQHLDMGRPPVPAEAEHRPESTTRPGPNRHEPGGRDPPQHFGGPPPLISPKPQLHAAPTALWNPVSLMDNTLETRRAESHSLHSHPAAFEPSRQAAVPLVKVERVFCPEKAEEGPRKREPAPLDKYQPPPPPPREGGSLEHQPFLPGPGPFLAELEKSTQTILGQQRASLPQAATFGELSGPLKPGSPYRPPVPRAPDPAYIYDEFLQQRRRLVSKLDLEERRRREAQEKGYYYDLDDSYDESDEEEVRAHLRCVAEQPPLKLDTSSEKLEFLQLFGLTTQQQKEELVAQKRRKRRRMLRERSPSPPTIQSKRQTPSPRLALSTRYSPDEMNNSPNFEEKKKFLTIFNLTHISAEKRKDKERLVEMLRAMKQKALSAAVADSLTNSPRDSPAVSLSEPATQQASLDVEKPVGVAASLSDIPKAAEPGKLEQVRPQELSRVQELAPASGEKARLSEAPGGKKSLSMLHYIRGAAPKDIPVPLSHSTNGKSKPWEPFVAEEFAHQFHESVLQSTQKALQKHKGSVAVLSAEQNHKVDTSVHYNIPELQSSSRAPPPQHNGQQEPPTARKGPPTQELDRDSEEEEEEDDEDGEDEEEVPKRKWQGIEAVFEAYQEHIEEQNLERQVLQTQCRRLEARHYSLSLTAEQLSHSVAELRSQKQKMVSERERLQAELDHLRKCLALPAMHWPRGYLKGYPR
# partner: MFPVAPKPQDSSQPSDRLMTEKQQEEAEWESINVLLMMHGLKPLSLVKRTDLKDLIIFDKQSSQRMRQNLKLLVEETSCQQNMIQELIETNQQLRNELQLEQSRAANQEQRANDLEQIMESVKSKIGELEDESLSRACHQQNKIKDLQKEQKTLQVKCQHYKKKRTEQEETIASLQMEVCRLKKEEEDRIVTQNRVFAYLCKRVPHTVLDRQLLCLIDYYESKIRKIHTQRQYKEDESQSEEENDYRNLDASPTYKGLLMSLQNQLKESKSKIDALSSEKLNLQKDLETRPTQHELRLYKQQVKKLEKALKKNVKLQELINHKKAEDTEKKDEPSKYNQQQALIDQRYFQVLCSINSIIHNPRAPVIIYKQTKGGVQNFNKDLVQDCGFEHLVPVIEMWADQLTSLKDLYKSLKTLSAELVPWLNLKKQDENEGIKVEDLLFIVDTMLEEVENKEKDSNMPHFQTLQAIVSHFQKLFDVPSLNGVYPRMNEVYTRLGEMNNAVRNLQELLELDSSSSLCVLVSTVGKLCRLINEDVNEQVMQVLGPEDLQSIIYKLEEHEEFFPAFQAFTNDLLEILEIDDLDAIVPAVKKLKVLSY
# B2: Palmitoyltransferase ZDHHC22 (Homo sapiens), Q8N966 (parent)
# chain: MLALRLLNVVAPAYFLCISLVTFVLQLFLFLPSMREDPAAARLFSPALLHGALFLFLSANALGNYVLVIQNSPDDLGACQGASARKTPCPSPSTHFCRVCARVTLRHDHHCFFTGNCIGSRNMRNFVLFCLYTSLACLYSMVAGVAYISAVLSISFAHPLAFLTLLPTSISQFFSGAVLGSEMFVILMLYLWFAIGLACAGFCCHQLLLILRGQTRHQVRKGVAVRARPWRKNLQEVFGKRWLLGLLVPMFNVGSESSKQQDK
# partner: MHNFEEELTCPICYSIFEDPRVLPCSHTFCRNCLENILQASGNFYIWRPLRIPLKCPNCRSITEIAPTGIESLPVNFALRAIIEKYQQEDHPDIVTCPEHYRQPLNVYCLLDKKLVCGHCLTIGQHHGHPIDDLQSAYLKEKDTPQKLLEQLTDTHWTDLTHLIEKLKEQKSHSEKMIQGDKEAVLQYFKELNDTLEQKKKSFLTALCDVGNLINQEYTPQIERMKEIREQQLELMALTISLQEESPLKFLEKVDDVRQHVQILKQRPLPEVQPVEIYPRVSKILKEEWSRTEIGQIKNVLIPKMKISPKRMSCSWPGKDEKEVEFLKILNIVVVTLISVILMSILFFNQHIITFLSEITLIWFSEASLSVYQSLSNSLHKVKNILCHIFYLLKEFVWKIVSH
# B3: Genetic suppressor element 1 (Homo sapiens), Q14687 (parent)
# chain: B1 chain
# Variants of: B1
# Details: with cep70_human CEP70, Q8NHQ1
row,effect of a mutation on the interaction,Variant
1,with no effect,E368K

# Variants of: B2
# Details: with tri59_human TRIM59, Q8IWR1
row,effect of a mutation on the interaction,Variant
1,with no effect,L209F

# Variants of: B3
# Details: with rbpms_human RBPMS
row,effect of a mutation on the interaction,Variant
1,with no effect,R503Q

# Variants of: B3
# Details: with rcor3_human RCOR3, Q9P2K3
row,effect of a mutation on the interaction,Variant
1,with no effect,R503Q

# Variants of: B3
# Details: with rbpms_human RBPMS
# Remark: another data set of the same source
row,effect of a mutation on the interaction,Variant
1,with no effect,E368K

# Variants of: B3
# Details: with rcor3_human RCOR3, Q9P2K3
# Remark: another data set of the same source
row,effect of a mutation on the interaction,Variant
1,with no effect,E368K
